Data: the nanobody polyreactivity screen of Harvey et al. (2022)

Experiment: yeast display, Sf9 membrane polyspecificity reagent, FACS + sequencing; frameworks hold sequencing errors
How it was run: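 Polyreactivity labels are assigned by the sorting gate from which each nanobody was recovered. The gates were low and high (top ~1%), set on anti-HA fluorescence for expression and streptavidin fluorescence for reagent binding. Before sorting, galactose-induced (36–48 hours) yeast display cells were stained for 1 hour at 4 °C with 10% biotinylated, detergent-solubilized Sf9 membrane reagent.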

| Sequence | polyreactivity (PSR sort gate) |
| --- | --- |
| QVQLVESGGGLVQAGGSLRLSCAASGRTFYFNSMGWYRQAPGKERELVASISYGSNTNYADSVKGRFTISRDNAKNTVYLQMNSLKPEDTAVYYCAVRWVYRTYSWGARYGRYDYWGQGTQVTVSS | high polyreactivity |
| QVQLVESGGGLVQAGGSLRLSCAASGSIFPWNTMGWYRQAPGKERELVARISTSGASTYYADSVKGRFTISRDNAKNTVYLQMNSLKPEDTAVYYCAKVRHYGGRSWWYYYWGQGTQVTVSS | high polyreactivity |
| QVQLVESGGGLVQAGGSLRLICAASGRTFQYYAMGWYRQAPGKERELVAAITSGGSTYYADSVKGRFTISRDNAKNTVYLQMNSLKPEDTAVYYCAATFYYSGHDDYWGQGTQVTVSS | low polyreactivity |
| QVQLVESGGGLVQAGGSLRLSCAASGYTFDSYTMGWYRQAPGKERELFAAITRSGSSTYYADSVKGRFTISRDNAKNTVYLLMNSLKPEDTAVYYCAAGWRRAAGIQYWYGYWGQGTQVTVSS | high polyreactivity |
| QVQLVESGGGLVQAGGSLRLSCAASGTFYLYAMGWYRQAPGKERELVARINSSGSTNLRRLCEGALHNFTRQCEEYRLFTDEQPETGRYRVYYCNADTKRSSREYDYWGQGTQVTVSS | low polyreactivity |
| QVQLVESGGGLVQAGGSLRLSCAASGLTFQNNAMGWYRQAPGKERELVAAISDGGSTNYADSVKGRFTISRDNAKNTVYLQMNSLKPEDTAVYYCAAVYTSASYGSWGQGTQVTVSS | low polyreactivity |
| QVQHVESGGALVQAGGSLRLSCAASGFTFTRNTMGWYRQAPGKERELVAAITRGGSTNYADSVKGRFTISRDNAKNTVYLQMNSLKPEDTAVYYCNKGRNVVLVRTADDYWGQGTQVTVSS | low polyreactivity |
| QVQLVESGGGLVQAGGSLRLSCAASGLTFVYYVLGWYRQAPGKESELVAAITDGGSTYYADSVKGRFTISRDNAKNTVYLQMNSRKPEDTAVYYCAADYYWLYGRWGVDYWGQGTQVTVSS | high polyreactivity |
| QVQLVESGGGLVQAGGSLRLSCAASGSTFRPYAMGWYRQAPGKERELVARITGSGDSTYYADSVKGRFTISRDNAKNTVYLQMNSLKPEDTAVYYCAREFDYSLSGFDYWGQGTQVTVSS | low polyreactivity |
| QVQLVESGGGLVQAGGSLRLSCAASGSTLRRYAMGWYRQAPGKERELVAAISGTGSRTYYADSVNGRFTISRDNAKNTDYLQMNSLKPEDTAVYYCNASQYRLTENDYWGQGTQVNVSS | high polyreactivity |
| QVQLVESGGGLVQAGGSLRLRCAASGFTLRLYTMAWYRQAPGQERELVAAINKRGGSTYYADSVKGRFTISRDNAKNSVYLQMISLKPEDTAVYYCANVPGYKAYEYDYWGQGTQVTVSS | high polyreactivity |
| QVQLVESGGGLVQAARTLRISCAASGYIFQYNSMRWYRPAPGKERELVAPSRYRGTSTYYADSVKGRFTISRDNAKNTDYSQMNRLKPEDTAVYYCAADSVQGRGFFGYGYWGQGTHVTVSS | high polyreactivity |
| QVQLVESGGGLVQAGGSLRLSCAASGSTFEYNAMGWYRQAPGKEREFVAASSRTGSRTYYADSVKGRFTISRDNAKHTVYLQMNSLKPEDTAVYYCAVSVPYGMDYWGQGTQLTVSS | high polyreactivity |
| QVQLVESGGGLVQEGGSLRLICAASGRTFYPNAMGWYRQAPGKERELVADITYSGASTYYADSVKGRFTISRDYAKNTVYLQMNSLKPEDTAVYYCNADDSCVLVYVPYDYWGQGTQVTVSS | low polyreactivity |
| QVQLVESGGGLVQAGGSLRLSCAASGFTFNNYAMGWYRQAPGKERELVAAISSVGRTYYADSVKGRFTISRDNAKNTVYLQLNSLKPEDTAVYYCAVVYPARGSGNDSWGQGTQVTLSS | high polyreactivity |
| QVQLVESGGGLVQAGGSLRLSCAASGFIFVGYGMGWYRQAPGKERELVAVITASGGSTYYADSVKGRFTISRDYAKKTVYLQMNSLKPEATAVYYCAARVGRYGYSEYYYWGHGTQVTVSS | high polyreactivity |
| QVQHEESGGGLVQAGGSLRLSCAASGSIFLWNAMGSYRQAPGKERELVASIGDSTYYADSVKGRFTISRDNAKNTVYLQMNSLKPEDTAVYYCKAEVLNYLVFGYQLCYDYWGQGTQVTVSS | low polyreactivity |
| QVQLVESGGGLVQAGGSLRLSCAASGSTFRYYARGWYRPAPGKERELVAAITRSGGSTYYADSVKGRFTISRDNAKNTVYLQMNSLKPEDTAVYYCAARWAYPHKTYGTEQTEYDYWGQGTQVTVSS | high polyreactivity |
| QVQQQESGGGLVQAGGSLRLSCAASGTIFQLTVMGRYRQASGKERELVASIDYGGNTNYADSVKGRFTISRDNAKNTVYLQMNSLKPEDTAVYFCAASSDSWTTHPYWGQGTQVTVSS | low polyreactivity |
| QVQLVESGGGLVQAGGSLRLSCAASGSTFYGYAMGWYRPAPGKERELVAAITRSGGSTYYADSVKGRFTISRDNAKNTVYLQMNSLKPEDTEVYYCNKYGYKGGVGYDYWGQGTQVTVSS | high polyreactivity |
| QVQLVESGGRLVQAGGSLRLSCAPSGRIFQPNVMGWSRQAPGKERELVAAIRSGSSTYYADSVKGRFTISRDNAKYSVYLQMNSLKPEDTAVYYCAARLFLPGYTRVNYLGQGTQVTVSS | high polyreactivity |
| QVQLVESGGGLVQAGGSLRLSCAASGRIFQEYAMGWYRQAPGKERELVAAISSGGGSTYYADSVKGRFTISRDNAKNTVYLQMNSLKPEDTAVYYCAARVYIAYISMDHWGQGTQVTVSS | low polyreactivity |

| Sequence | polyreactivity (PSR sort gate) |
| --- | --- |
| QVQLVESGGGLVQAGGSLRLSCAASGRTIGYNDLGWYRQAPGKERELVAAIDWSGGSTYYADSVKGRFTISRDNAKNTVYLQMNSLKPEDTAVYDCAALVWRDEYDYLGQGTQVTVSS | low polyreactivity |
| QVQLVESGGGLVQAGGSLRLSCAASGSSFYDNAMGWYRQAPGKERELVAGIRSTGRTYYADSVKGRFTISRDNAKNTVYLQMNSLKPEDTAVYYCAAYVGTYGEYDYWGQGTQVTVSS | low polyreactivity |
| QVQLVESGGGLVQAGGSLRLSCAASGRTFKRNTMGWYRQAPGKERELVAAISGTGSTNYADSVKGRFTISRDNAKNTVYLQMNSLKPEDTAVYYCGADDFSTVEYDYWGQGTQVTVSS | low polyreactivity |
| QVQLVESGGGLVQARCSLRLSCAASGSTFLRYAMGWYRQAPGKERELVATISSSDDGTYYADSVKGRFTISRDIAKNTVYLQMNSLKPEDTAVYYCAARSWYLYYYWGQGTQVTVSS | low polyreactivity |
| QVQLVESGGGLVQAGGSLRLSCAASGSIFGRYAMGWYRQAPGKERELVAAISYSGGSTYYADSVKGRFTISRDNAKNTVYLQMKSLKPEDTAFYYCAAEPSYYTRWFDGHYYYWGQGSQVTVSS | high polyreactivity |
| QVQLVESGGGIVQAGGSLRLSCAASGSTFSKYAMGWYRQAPGNERELVAAISSRGGSTYYADSVKGRFTISRDNAKNTVYLQMNCLKPEDTAVYYCAAKFYAEYGYWGHGTQVTVSS | high polyreactivity |
| QVQLVESGGGLVQAGGSLRLSCAASGRIFDYNAMGWYRQAPGKERELVAAITSAGGTNYADSVKGRFTISRDNAKNTVYLQMNSLKPEDTAVYDCAADGSGYYDWYYYWGQGTQVTVSS | low polyreactivity |
| QVQLVESGGGLVQAGGSLRLSCADSGSILTRNAMGWYRQAPGKERELVAAISYSGVRTYYADSVKGRFTISRDNAKNNVYLQMNSLKQEDTAVYYCNAVISSRYDYWGQGTQVTVSS | high polyreactivity |
| HVQLVESGGGLVQAGGSLRLSCAASGLTFSRYTMGWYRQAPGKERELVAAISRSGASTYYADSVKGRFTISRDNAKNTVYLQMNSLKPEDTAVYYCAKTSTSYGSLRKVTPYPLDYWGQGTQVTVSS | high polyreactivity |
| QVQLVESGGGLVQAGGSLRLSCAASGLIFRPYAMGWYRQAPGQERELVAAITSGGSTDYADSVKGRFTISRDNAKNTVYLQMNSLKPEDTAVYYCNADIYPPDGYPWQGDYDYWGQGTQVTVSS | low polyreactivity |
| QVQLVESGGGLVQAGGSLRLSCAASGSIFGYTTMGWYRQGPGKERELVAAINWSDGHTNYADSVKGRFTISRDNANNTVYLQLNSLKPEDTAVYYCAADWYRSSWTYNYWGQGSQVTVSS | low polyreactivity |
| QVQIVESGGGLVQAGGSLRISCAASGFIFAYNSMGWNRQAPGKERELVAAISRSGGSTRYADSVKGRFPISRDNAKNTVFLQMNSLKPEDTAVYYCAAEYLGSYGYYEYDFWGQGTQVTVSS | high polyreactivity |
| QVQLVESGGGLVQAGGSLRLSCAASGRIFVHYAMGWYRQAPGKERDLVAAISMSGGNTYYADSVKGRFTISRDNEKNTVYLQMNSLKPEDTAVYYCARAPYYVASGHRRVLRPTYEYWGQGTQLTVSS | low polyreactivity |
| QVQLVESGGGLVQAGGSLRLSCAASGSIFRDNAMGWYRQAPGKERELVAAITDSGGRTYYADSVKGRFTISRDNAKNTVYLQMNSLKPEDTAVYYCAAGQSGYAGRRPAFGYWGQGTQVTVSS | low polyreactivity |
| QVQLVESGGGLVQAGGSLRLSCASSGRTFLINAMGWYRQAPWKERELVATISRSGGSTYYADSVKGRFTISRDNAKITVYLQMNSLKPEDTAVYYCAALVRIGYYYWGQGTQVTVSS | high polyreactivity |
| QVQLVESGRGLVQAGGSLLLICAASGSTFYTNAMGWYRQAPGKERELVASITGGGSTYYADSVKGRFTISRDNAKNTVYLQMNSLKPEDTAVYYWAAVNFGGGWEFDSWGQGTKVTVSS | low polyreactivity |
| QVQLVESGGGLVQAGGSLRLSCAASGSILGHYAMGWYRQAPGTERELVAAISWSGGSTYYADSVKGRFTISRDNAKNTVYLQMNSLKPEDTAVYYCNAAAILYTSDGSLYWYDYWGQGTQVTVSS | low polyreactivity |
| QVQLVESGGGLVQAGGSLRLSCAASGRIFRYNGMGWYRQAPGKERELVAVITPRSGTTSYADSVKGRFTISRDNAKNTVYLQMNSLKPEDTAVYYCAADSDWYPSPYDYWGQGTQVTVSS | high polyreactivity |
| QVQLVESGGGLVQAGGSLRLSCAASGFTFTRYAMGWYRPAPGKERELVAAISWNGGSMYYADSVKGRFTISRDNAKNTVYLQMNSLKPEDTAVYYCAVRFKYQWSKFGYWGQGTQVTVSS | high polyreactivity |
| QVQLVESGGGLVQAGGSLRLSCAASGRIFRGYAMGWYRQAPGKERELVATINASGGTTYYADSVKGRFTISRDNAKNTVYLQMNSLKPEDTAVYYCNARYRRFFSGYGYWGQGTQVTVSS | high polyreactivity |
| QVHLVESGGGLVQAGGSLRLTCAASGRIFSSYAMGWYRQAPGKVRELVPAITRGGSTYYADSVKGRFTISRDNAKYTVYLQMNSLKPEDTGVYYCAGRQPYRYWFWGNEDFWGQGSQVTVSS | high polyreactivity |
